Assays:
ECD = assay: ELISA on HER2 ECD, absorbance; antibody concentration not given
HER2-ECD-His protein = molecular target: T1, HER2-ECD-His protein (human, UniProt P04626 23-652); assay: SPR (Biacore 3000), antibody captured by anti-human IgG, HER2-ECD-His analyte, 1:1 model
T1 construct: extracellular domain; not shown: His tag
Description: All the experiments were performed using Biacore 3000. First, the goat antibodies to human IgG were immobilized at a concentration of 1000 RU to a CM5 sensor chip via an amine coupling method. […] Before binding to HER2-ECD-His protein, each antibody was bound at a rate of 50 μL/min for 180 seconds, and allowed the buffer to flow thereonto for stabilization purpose. […] The sensor chip was recycled by allowing 10 mM Glycine-HCl (pH 1.5) buffer to flow thereonto. All the sensorgram data was analyzed via a 1:1 interaction model using BIAevaluation software.

Domain1 = molecular target: T2, Domain1 (human, UniProt P04626); assay: ELISA on HER2 sub-domain Fc fusions, absorbance; antibody concentration not given
T2 construct: single sub-domain of the extracellular domain; produced in animal cells, purified with Protein-A; also called HER2 sub-domain 1 with hinge region and Fc region of human IgG1

Domain2 = molecular target: T3, Domain2 (human, UniProt P04626); assay: as above
T3 construct: single sub-domain of the extracellular domain; produced in animal cells, purified with Protein-A; also called HER2 sub-domain 2 with hinge region and Fc region of human IgG1

Domain3 = molecular target: T4, Domain3 (human, UniProt P04626); assay: as above
T4 construct: single sub-domain of the extracellular domain; produced in animal cells, purified with Protein-A; also called HER2 sub-domain 3 with hinge region and Fc region of human IgG1

Mouse = molecular target: T5, Mouse (mouse, UniProt P70424); assay: ELISA on HER2 extracellular domains of five species, absorbance; antibody concentration not given
T5 construct: extracellular domain; also called HER2 extracellular domain of a mouse (Sino Biological Inc., #50714-M08H); mouse HER2

Rat = molecular target: T6, Rat (rat, UniProt P06494); assay: as above
T6 construct: extracellular domain; also called HER2 extracellular domain of a rat (Sino Biological Inc., #80079-R08H); rat HER2

[1] = molecular target: T7, HER2 extracellular domain of a rhesus monkey (Sino Biological Inc., #90020-K08H) (rhesus monkey, UniProt I0FM22 23-652); assay: as above
T7 construct: extracellular domain; Purchased; also called rhesus monkey HER2

EGFR-ECD-Fc = molecular target: T8, EGFR-ECD-Fc (human, UniProt P00533 25-645); assay: ELISA on extracellular domains of ErbB family proteins, absorbance; antibody concentration not given
T8 construct: extracellular domain; Produced in the same manner as HER2-ECD-Fc; not shown: hinge region of human IgG1 and Fc portion (CH2-CH3), as in HER2-ECD-Fc

[2] = molecular target: T9, HER3 extracellular domain (R&D Systems, #348-RB-050) (human, UniProt P21860 20-643); assay: as above
T9 construct: extracellular domain; Purchased

[3] = molecular target: T10, HER4 extracellular domain (R&D Systems, #1131-ER-050) (human, UniProt Q15303 26-651); assay: as above
T10 construct: extracellular domain; Purchased
T10 sequence (looked up): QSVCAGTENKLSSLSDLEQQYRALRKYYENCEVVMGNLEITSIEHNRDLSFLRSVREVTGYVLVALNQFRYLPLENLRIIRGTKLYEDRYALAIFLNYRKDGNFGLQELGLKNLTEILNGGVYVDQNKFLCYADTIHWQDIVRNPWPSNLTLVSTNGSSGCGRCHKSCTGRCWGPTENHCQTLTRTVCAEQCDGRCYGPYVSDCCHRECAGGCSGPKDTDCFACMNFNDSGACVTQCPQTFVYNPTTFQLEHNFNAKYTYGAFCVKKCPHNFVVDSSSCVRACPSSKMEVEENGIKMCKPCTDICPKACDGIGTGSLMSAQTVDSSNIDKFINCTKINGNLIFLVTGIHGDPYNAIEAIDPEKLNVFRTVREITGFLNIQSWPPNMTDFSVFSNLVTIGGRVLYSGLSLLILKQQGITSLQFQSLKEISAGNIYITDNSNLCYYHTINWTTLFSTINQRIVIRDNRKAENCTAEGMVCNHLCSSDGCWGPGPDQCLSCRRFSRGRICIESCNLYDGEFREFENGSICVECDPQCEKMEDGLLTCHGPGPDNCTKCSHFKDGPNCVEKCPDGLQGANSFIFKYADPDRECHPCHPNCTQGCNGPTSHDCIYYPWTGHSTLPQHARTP

T5 sequence (P70424 23-653): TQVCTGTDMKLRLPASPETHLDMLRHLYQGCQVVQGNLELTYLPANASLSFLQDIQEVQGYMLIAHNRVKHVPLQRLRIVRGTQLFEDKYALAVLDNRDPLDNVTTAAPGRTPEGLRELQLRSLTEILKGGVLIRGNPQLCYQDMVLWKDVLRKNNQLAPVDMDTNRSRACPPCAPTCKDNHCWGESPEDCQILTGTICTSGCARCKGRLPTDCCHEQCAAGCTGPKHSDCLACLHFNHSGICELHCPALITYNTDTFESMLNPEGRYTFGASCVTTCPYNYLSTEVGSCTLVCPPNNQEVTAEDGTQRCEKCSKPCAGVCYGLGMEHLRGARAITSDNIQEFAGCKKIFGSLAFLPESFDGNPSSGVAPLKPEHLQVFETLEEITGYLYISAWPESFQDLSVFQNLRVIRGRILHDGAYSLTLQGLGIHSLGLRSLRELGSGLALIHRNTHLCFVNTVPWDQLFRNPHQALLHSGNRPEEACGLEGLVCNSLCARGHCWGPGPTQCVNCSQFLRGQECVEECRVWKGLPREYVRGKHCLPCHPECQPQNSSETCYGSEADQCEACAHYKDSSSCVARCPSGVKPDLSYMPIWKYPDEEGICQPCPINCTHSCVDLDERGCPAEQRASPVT
T6 sequence (P06494 23-654): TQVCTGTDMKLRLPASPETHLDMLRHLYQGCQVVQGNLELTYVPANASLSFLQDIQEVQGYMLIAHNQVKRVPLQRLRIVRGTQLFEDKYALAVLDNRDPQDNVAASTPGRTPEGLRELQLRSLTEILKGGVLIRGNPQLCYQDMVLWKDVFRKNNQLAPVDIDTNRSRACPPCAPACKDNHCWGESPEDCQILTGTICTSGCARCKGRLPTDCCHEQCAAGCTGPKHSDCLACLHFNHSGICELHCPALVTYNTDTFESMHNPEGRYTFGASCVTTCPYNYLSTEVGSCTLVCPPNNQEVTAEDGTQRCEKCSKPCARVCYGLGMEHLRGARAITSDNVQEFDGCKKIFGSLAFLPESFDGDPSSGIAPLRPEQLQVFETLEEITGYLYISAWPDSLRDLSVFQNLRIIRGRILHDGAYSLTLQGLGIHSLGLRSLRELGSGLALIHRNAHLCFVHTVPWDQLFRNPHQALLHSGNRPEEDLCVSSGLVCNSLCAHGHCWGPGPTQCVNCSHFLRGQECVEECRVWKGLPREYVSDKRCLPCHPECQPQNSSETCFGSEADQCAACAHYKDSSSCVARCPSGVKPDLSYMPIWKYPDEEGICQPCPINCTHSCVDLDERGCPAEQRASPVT

binding result (ECD): binds
Kd (HER2-ECD-His protein): 16 nM
koff (HER2-ECD-His protein): 0.00047 s⁻¹
kon (HER2-ECD-His protein): 30000 M⁻¹ s⁻¹
binding result (Domain1): no binding
binding result (Domain2): no binding
binding result (Domain3): no binding
binding result (Mouse): no binding
binding result (Rat): no binding
binding result [1]: binds
binding result (EGFR-ECD-Fc): no binding
binding result [2]: no binding
binding result [3]: no binding
B1: 1E11 antibody (antibody, V domains shown)
VH: EVKLVESGGGLVQPGGSLKLSCAASGFTFSSYTMSWVRQTPEKRLEWVAYISNGGGSTYYPDTVKGRFTISRDNAKNTLYLQMSSLKSEDTAMYYCARHLGGTASFDYWGQGTTVTVSS
VL: DIQMTQSPASQSASLGESVTITCLASQTIGTWLAWYQQKPGKSPQLLIYVATSLADGVPSRFSGSGSGTKFSFKISSLQAEDFVSYYCQQLYSTPWTFGGGTKLELK
notes: Mouse variable regions; also called 1E11 clones; chimeric 1E11
